# According to US20250222112A1:
# Biological target: soluble ectodomain from HSV-2 glycoprotein D (amino acids 26-331) containing a 6-histidine tag (herpes simplex virus 2 (HSV-2)) (UniProt Q69467)
# Assay: ELISA, gD-6H coated at 15 µg/ml, HSV8 in 5-fold dilutions from 10 µg/ml, anti-human IgG-HRP
# UniProt Q69467, sequence (Q69467 26-331, tags left off): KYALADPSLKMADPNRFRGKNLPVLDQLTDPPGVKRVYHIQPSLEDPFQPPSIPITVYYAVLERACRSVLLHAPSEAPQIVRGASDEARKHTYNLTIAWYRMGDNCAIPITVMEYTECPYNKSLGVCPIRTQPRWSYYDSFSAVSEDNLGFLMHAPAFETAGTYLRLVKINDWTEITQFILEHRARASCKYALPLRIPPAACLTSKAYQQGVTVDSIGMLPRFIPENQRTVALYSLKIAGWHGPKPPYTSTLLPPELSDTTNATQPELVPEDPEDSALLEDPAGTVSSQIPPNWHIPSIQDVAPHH
substance,measurement,value
human IgG1 monoclonal antibody HSV8,lowest concentration with robust binding,3 nM
